Results published in patent publication US20220089698A1 (published 2022).

Experiments:
[1] = target: HIV gp120 Bal (HIV); assay: single-point ELISA; note: test concentration or dose not given here
[2] = target: HIV gp120 CAAN (HIV); assay: single-point ELISA; note: test concentration or dose not given here

| Binder | ELISA (A450) [1] | ELISA (A450) [2] |
| --- | --- | --- |
| 1.1.34-1 (antibody, human IgG1, kappa) heavy: QVQLLQSGAAVTKPGASVRVSCEASGYNIRDYFIHWWRQAPGQGLQWVGWINPKTGQPNNPRQFQGRVSLTRHASWDFDTFSFYMDLKALRSDDTAVYFCARQRSDYWDFDVWGSGTQVTVSSASTKGPSVFPLAPSSKSTSGGTAALGCLVKDYFPEPVTVSWNSGALTSGVHTFPAVLQSSGLYSLSSVVTVPSSSLGTQTYICNVNHKPSNTKVDKKVEPKSCDKTHTCPPCPAPELLAGPDVFLFPPKPKDTLMISRTPEVTCVVVDVSHEDPEVKFNWYVDGVEVHNAKTKPREEQYNSTYRVVSVLTVLHQDWLNGKEYKCKVSNKALPLPEEKTISKAKGQPREPQVYTLPPSREEMTKNQVSLTCLVKGFYPSDIAVEWESNGQPENNYKTTPPVLDSDGSFFLYSKLTVDKSRWQQGNVFSCSVLHEALHSHYTQKSLSLSPGK light: DIQMTQSPSSLSASVGDTVTITCQANGYLNWYQQRRGKAPKLLIYDGSNLERGVPSRFSGRRWGQEYTLTISSLQPEDIATYFCQVYEFVTPGTRLDIKRTVAAPSVFIFPPSDEQLKSGTASVVCLLNNFYPREAKVQWKVDNALQSGNSQESVTEQDSKDSTYSLSSTLTLSKADYEKHKVYACEVTHQGLSSPVTKSFNRGEC | 0.9 A450 | 0.96 A450 |
| 1.33.34-1 (antibody, human IgG1, kappa) heavy: QVQLVQSGAEVKKPGASVRVSCKASGYNIRDYFIHWWRQAPGQGLQWVGWINPKTGQPNNPRQFQGRVTLTRHASWDFDTFSFYMDLKALRSDDTATYFCARQRSDYWDFDVWGSGTQVTVSSASTKGPSVFPLAPSSKSTSGGTAALGCLVKDYFPEPVTVSWNSGALTSGVHTFPAVLQSSGLYSLSSVVTVPSSSLGTQTYICNVNHKPSNTKVDKKVEPKSCDKTHTCPPCPAPELLAGPDVFLFPPKPKDTLMISRTPEVTCVVVDVSHEDPEVKFNWYVDGVEVHNAKTKPREEQYNSTYRVVSVLTVLHQDWLNGKEYKCKVSNKALPLPEEKTISKAKGQPREPQVYTLPPSREEMTKNQVSLTCLVKGFYPSDIAVEWESNGQPENNYKTTPPVLDSDGSFFLYSKLTVDKSRWQQGNVFSCSVLHEALHSHYTQKSLSLSPGK light: DIQMTQSPSSLSASVGDTVTITCQANGYLNWYQQRRGKAPKLLIYDGSNLERGVPSRFSGRRWGQEYTLTISSLQPEDIATYFCQVYEFVTPGTRLDIKRTVAAPSVFIFPPSDEQLKSGTASVVCLLNNFYPREAKVQWKVDNALQSGNSQESVTEQDSKDSTYSLSSTLTLSKADYEKHKVYACEVTHQGLSSPVTKSFNRGEC | 0.95 A450 | 0.95 A450 |
| 1.36.34-1 (antibody, human IgG1, kappa) heavy: QVQLVQSGAEVKKPGASVRVSCKASGYNIRDYFMHWWRQAPGQGLQWVGWINPKTGQPNNPRQFQGRVTMTRHASWDFDTFSAYMDLSRLRSDDTATYFCARQRTDYWDFDVWGQGTMVTVSSASTKGPSVFPLAPSSKSTSGGTAALGCLVKDYFPEPVTVSWNSGALTSGVHTFPAVLQSSGLYSLSSVVTVPSSSLGTQTYICNVNHKPSNTKVDKKVEPKSCDKTHTCPPCPAPELLAGPDVFLFPPKPKDTLMISRTPEVTCVVVDVSHEDPEVKFNWYVDGVEVHNAKTKPREEQYNSTYRVVSVLTVLHQDWLNGKEYKCKVSNKALPLPEEKTISKAKGQPREPQVYTLPPSREEMTKNQVSLTCLVKGFYPSDIAVEWESNGQPENNYKTTPPVLDSDGSFFLYSKLTVDKSRWQQGNVFSCSVLHEALHSHYTQKSLSLSPGK light: DIQMTQSPSSLSASVGDTVTITCQANGYLNWYQQRRGKAPKLLIYDGSNLERGVPSRFSGRRWGQEYTLTISSLQPEDIATYFCQVYEFVTPGTRLDIKRTVAAPSVFIFPPSDEQLKSGTASVVCLLNNFYPREAKVQWKVDNALQSGNSQESVTEQDSKDSTYSLSSTLTLSKADYEKHKVYACEVTHQGLSSPVTKSFNRGEC | 1.01 A450 | 0.43 A450 |
| 1.34.34-1 (antibody, human IgG1, kappa) heavy: QVQLVQSGAEVKKPGASVRVSCKASGYNIRDYFIHWWRQAPGQGLQWVGWINPKTGQPNNPRQFQGRVTLTRHASWDFDTFSFYMDLKALRSDDTAVYFCARQRTDYWDFDVWGSGTQVTVSSASTKGPSVFPLAPSSKSTSGGTAALGCLVKDYFPEPVTVSWNSGALTSGVHTFPAVLQSSGLYSLSSVVTVPSSSLGTQTYICNVNHKPSNTKVDKKVEPKSCDKTHTCPPCPAPELLAGPDVFLFPPKPKDTLMISRTPEVTCVVVDVSHEDPEVKFNWYVDGVEVHNAKTKPREEQYNSTYRVVSVLTVLHQDWLNGKEYKCKVSNKALPLPEEKTISKAKGQPREPQVYTLPPSREEMTKNQVSLTCLVKGFYPSDIAVEWESNGQPENNYKTTPPVLDSDGSFFLYSKLTVDKSRWQQGNVFSCSVLHEALHSHYTQKSLSLSPGK light: DIQMTQSPSSLSASVGDTVTITCQANGYLNWYQQRRGKAPKLLIYDGSNLERGVPSRFSGRRWGQEYTLTISSLQPEDIATYFCQVYEFVTPGTRLDIKRTVAAPSVFIFPPSDEQLKSGTASVVCLLNNFYPREAKVQWKVDNALQSGNSQESVTEQDSKDSTYSLSSTLTLSKADYEKHKVYACEVTHQGLSSPVTKSFNRGEC | 0.89 A450 | 0.88 A450 |
| 1.35.34-1 (antibody, human IgG1, kappa) heavy: QVQLVQSGAEVKKPGASVRVSCKASGYNIRDYFMHWWRQAPGQGLQWVGWINPKTGQPNNPRQFQGRVTMTRHASWDFDTFSFYMDLSRLRSDDTATYFCARQRTDYWDFDVWGQGTMVTVSSASTKGPSVFPLAPSSKSTSGGTAALGCLVKDYFPEPVTVSWNSGALTSGVHTFPAVLQSSGLYSLSSVVTVPSSSLGTQTYICNVNHKPSNTKVDKKVEPKSCDKTHTCPPCPAPELLAGPDVFLFPPKPKDTLMISRTPEVTCVVVDVSHEDPEVKFNWYVDGVEVHNAKTKPREEQYNSTYRVVSVLTVLHQDWLNGKEYKCKVSNKALPLPEEKTISKAKGQPREPQVYTLPPSREEMTKNQVSLTCLVKGFYPSDIAVEWESNGQPENNYKTTPPVLDSDGSFFLYSKLTVDKSRWQQGNVFSCSVLHEALHSHYTQKSLSLSPGK light: DIQMTQSPSSLSASVGDTVTITCQANGYLNWYQQRRGKAPKLLIYDGSNLERGVPSRFSGRRWGQEYTLTISSLQPEDIATYFCQVYEFVTPGTRLDIKRTVAAPSVFIFPPSDEQLKSGTASVVCLLNNFYPREAKVQWKVDNALQSGNSQESVTEQDSKDSTYSLSSTLTLSKADYEKHKVYACEVTHQGLSSPVTKSFNRGEC | 1 A450 | 0.85 A450 |
| 1.31.34-1 (antibody, human IgG1, kappa) heavy: QVQLVQSGAEVTKPGASVRVSCEASGYNIRDYFIHWWRQAPGQGLQWVGWINPKTGQPNNPRQFQGRVSLTRHASWDFDTFSFYMDLKALRSDDTATYFCARQRSDYWDFDVWGSGTQVTVSSASTKGPSVFPLAPSSKSTSGGTAALGCLVKDYFPEPVTVSWNSGALTSGVHTFPAVLQSSGLYSLSSVVTVPSSSLGTQTYICNVNHKPSNTKVDKKVEPKSCDKTHTCPPCPAPELLAGPDVFLFPPKPKDTLMISRTPEVTCVVVDVSHEDPEVKFNWYVDGVEVHNAKTKPREEQYNSTYRVVSVLTVLHQDWLNGKEYKCKVSNKALPLPEEKTISKAKGQPREPQVYTLPPSREEMTKNQVSLTCLVKGFYPSDIAVEWESNGQPENNYKTTPPVLDSDGSFFLYSKLTVDKSRWQQGNVFSCSVLHEALHSHYTQKSLSLSPGK light: DIQMTQSPSSLSASVGDTVTITCQANGYLNWYQQRRGKAPKLLIYDGSNLERGVPSRFSGRRWGQEYTLTISSLQPEDIATYFCQVYEFVTPGTRLDIKRTVAAPSVFIFPPSDEQLKSGTASVVCLLNNFYPREAKVQWKVDNALQSGNSQESVTEQDSKDSTYSLSSTLTLSKADYEKHKVYACEVTHQGLSSPVTKSFNRGEC | 0.76 A450 | 0.86 A450 |
| 1.32.34-1 (antibody, human IgG1, kappa) heavy: QVQLVQSGAEVTKPGASVRVSCEASGYNIRDYFIHWWRQAPGQGLQWVGWINPKTGQPNNPRQFQGRVSLTRHASWDFDTFSFYMDLKALRSDDTAVYFCARQRTDYWDFDVWGSGTQVTVSSASTKGPSVFPLAPSSKSTSGGTAALGCLVKDYFPEPVTVSWNSGALTSGVHTFPAVLQSSGLYSLSSVVTVPSSSLGTQTYICNVNHKPSNTKVDKKVEPKSCDKTHTCPPCPAPELLAGPDVFLFPPKPKDTLMISRTPEVTCVVVDVSHEDPEVKFNWYVDGVEVHNAKTKPREEQYNSTYRVVSVLTVLHQDWLNGKEYKCKVSNKALPLPEEKTISKAKGQPREPQVYTLPPSREEMTKNQVSLTCLVKGFYPSDIAVEWESNGQPENNYKTTPPVLDSDGSFFLYSKLTVDKSRWQQGNVFSCSVLHEALHSHYTQKSLSLSPGK light: DIQMTQSPSSLSASVGDTVTITCQANGYLNWYQQRRGKAPKLLIYDGSNLERGVPSRFSGRRWGQEYTLTISSLQPEDIATYFCQVYEFVTPGTRLDIKRTVAAPSVFIFPPSDEQLKSGTASVVCLLNNFYPREAKVQWKVDNALQSGNSQESVTEQDSKDSTYSLSSTLTLSKADYEKHKVYACEVTHQGLSSPVTKSFNRGEC | 0.81 A450 | 0.86 A450 |
| 1.1.35-1 (antibody, human IgG1, kappa, V domains shown) VH: QVQLLQSGAAVTKPGASVRVSCEASGYNIRDYFIHWWRQAPGQGLQWVGWINPKTGQPNNPRQFQGRVSLTRHASWDFDTFSFYMDLKALRSDDTAVYFCARQRSDYWDFDVWGSGTQVTVSS VL: DIQMTQSPSSLSASVGDRVTITCQANGYLNWYQQKPGKAPKLLIYDGSNLETGVPSRFSGSRWGQEYTLTISSLQPEDIATYFCQVYEFVGPGTNLDIKR | 0.96 A450 | 0.75 A450 |
| 1.31.35-1 (antibody, human IgG1, kappa, V domains shown) VH: QVQLVQSGAEVTKPGASVRVSCEASGYNIRDYFIHWWRQAPGQGLQWVGWINPKTGQPNNPRQFQGRVSLTRHASWDFDTFSFYMDLKALRSDDTATYFCARQRSDYWDFDVWGSGTQVTVSS VL: DIQMTQSPSSLSASVGDRVTITCQANGYLNWYQQKPGKAPKLLIYDGSNLETGVPSRFSGSRWGQEYTLTISSLQPEDIATYFCQVYEFVGPGTNLDIKR | 0.9 A450 | 0.77 A450 |
| 1.33.35-1 (antibody, human IgG1, kappa, V domains shown) VH: QVQLVQSGAEVKKPGASVRVSCKASGYNIRDYFIHWWRQAPGQGLQWVGWINPKTGQPNNPRQFQGRVTLTRHASWDFDTFSFYMDLKALRSDDTATYFCARQRSDYWDFDVWGSGTQVTVSS VL: DIQMTQSPSSLSASVGDRVTITCQANGYLNWYQQKPGKAPKLLIYDGSNLETGVPSRFSGSRWGQEYTLTISSLQPEDIATYFCQVYEFVGPGTNLDIKR | 1.03 A450 | 0.81 A450 |
| 1.32.35-1 (antibody, human IgG1, kappa, V domains shown) VH: QVQLVQSGAEVTKPGASVRVSCEASGYNIRDYFIHWWRQAPGQGLQWVGWINPKTGQPNNPRQFQGRVSLTRHASWDFDTFSFYMDLKALRSDDTAVYFCARQRTDYWDFDVWGSGTQVTVSS VL: DIQMTQSPSSLSASVGDRVTITCQANGYLNWYQQKPGKAPKLLIYDGSNLETGVPSRFSGSRWGQEYTLTISSLQPEDIATYFCQVYEFVGPGTNLDIKR | 0.89 A450 | 0.59 A450 |
